Data reported in patent US20130171063A1 (LUDWIG INSTITUTE FOR CANCER RESEARCH, published 2013).
Blank lines part the entries; values can stand above or below the binder they belong to.

Columns and labels:
unprocessed c-Met (p170) = target: T1, unprocessed c-Met (p170) (human, UniProt P08581 25-1390); assay: immunoprecipitation from A549 cells, western blot with 25H2 under reducing conditions
T1 construct: whole, on cells; Single-chain precursor, not cleaved at the furin site; also called unprocessed form of c-Met; c-Met precursor
T1 sequence (P08581 25-1390): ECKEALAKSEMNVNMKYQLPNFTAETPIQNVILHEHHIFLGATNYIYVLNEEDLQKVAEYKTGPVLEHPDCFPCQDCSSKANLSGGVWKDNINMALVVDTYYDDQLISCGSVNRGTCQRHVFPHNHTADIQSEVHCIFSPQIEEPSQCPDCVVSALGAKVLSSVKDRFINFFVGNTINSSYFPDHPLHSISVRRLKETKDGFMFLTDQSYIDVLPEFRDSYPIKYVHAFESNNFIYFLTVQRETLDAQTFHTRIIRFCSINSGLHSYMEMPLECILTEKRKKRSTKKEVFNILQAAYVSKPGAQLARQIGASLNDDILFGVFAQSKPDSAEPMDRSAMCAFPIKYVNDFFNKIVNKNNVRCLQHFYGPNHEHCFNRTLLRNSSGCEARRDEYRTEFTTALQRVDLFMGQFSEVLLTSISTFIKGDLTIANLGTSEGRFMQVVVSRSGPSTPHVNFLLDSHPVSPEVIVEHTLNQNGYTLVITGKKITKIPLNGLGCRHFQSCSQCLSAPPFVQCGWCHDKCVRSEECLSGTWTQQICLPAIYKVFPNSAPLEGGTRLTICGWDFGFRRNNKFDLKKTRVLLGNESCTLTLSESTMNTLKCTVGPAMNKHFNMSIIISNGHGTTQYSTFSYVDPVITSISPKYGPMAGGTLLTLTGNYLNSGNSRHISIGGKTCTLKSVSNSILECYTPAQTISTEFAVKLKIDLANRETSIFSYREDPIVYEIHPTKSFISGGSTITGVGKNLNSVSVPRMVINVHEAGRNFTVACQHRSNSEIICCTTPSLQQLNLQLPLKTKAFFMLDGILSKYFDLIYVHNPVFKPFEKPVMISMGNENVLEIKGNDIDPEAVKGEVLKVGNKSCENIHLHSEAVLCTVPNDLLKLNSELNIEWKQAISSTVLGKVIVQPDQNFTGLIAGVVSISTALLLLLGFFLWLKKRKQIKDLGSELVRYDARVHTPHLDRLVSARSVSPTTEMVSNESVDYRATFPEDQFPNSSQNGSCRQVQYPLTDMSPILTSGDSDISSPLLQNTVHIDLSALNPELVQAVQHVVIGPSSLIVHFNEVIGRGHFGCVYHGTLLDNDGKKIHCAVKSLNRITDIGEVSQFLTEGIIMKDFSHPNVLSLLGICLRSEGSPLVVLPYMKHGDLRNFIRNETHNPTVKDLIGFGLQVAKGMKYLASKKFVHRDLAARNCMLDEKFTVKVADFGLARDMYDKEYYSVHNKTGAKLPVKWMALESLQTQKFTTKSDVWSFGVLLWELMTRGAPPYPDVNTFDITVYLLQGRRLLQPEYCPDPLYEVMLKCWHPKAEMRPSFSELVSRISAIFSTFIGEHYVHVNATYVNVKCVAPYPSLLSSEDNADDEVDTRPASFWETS

[1] = target: T2, c-Met receptor as expressed by human tumor cells (total c-Met) (human, UniProt P08581 25-1390); assay: flow cytometry on A549 cells, PE-conjugated anti-mouse secondary antibody
T2 construct: whole, on cells; also called surface c-Met; HGFR
T2 sequence (P08581 25-1390): as above
Excerpt: The control antibody was a mouse IgG1 isotype matched antibody. An increase in PE signal intensity indicated antibody binding to c-Met.

[2] = target: T3, purified truncated c-Met fragment designated 25-567H (human, UniProt P08581 25-567); assay: ELISA, plate coated with recombinant truncated c-Met antigen
T3 construct: Produced in transfected CHO-Lec cells; also called c-Met antigen; c-Met Ag
T3 sequence (P08581 other isoform, or with tags, fused parts or gaps limits assumed): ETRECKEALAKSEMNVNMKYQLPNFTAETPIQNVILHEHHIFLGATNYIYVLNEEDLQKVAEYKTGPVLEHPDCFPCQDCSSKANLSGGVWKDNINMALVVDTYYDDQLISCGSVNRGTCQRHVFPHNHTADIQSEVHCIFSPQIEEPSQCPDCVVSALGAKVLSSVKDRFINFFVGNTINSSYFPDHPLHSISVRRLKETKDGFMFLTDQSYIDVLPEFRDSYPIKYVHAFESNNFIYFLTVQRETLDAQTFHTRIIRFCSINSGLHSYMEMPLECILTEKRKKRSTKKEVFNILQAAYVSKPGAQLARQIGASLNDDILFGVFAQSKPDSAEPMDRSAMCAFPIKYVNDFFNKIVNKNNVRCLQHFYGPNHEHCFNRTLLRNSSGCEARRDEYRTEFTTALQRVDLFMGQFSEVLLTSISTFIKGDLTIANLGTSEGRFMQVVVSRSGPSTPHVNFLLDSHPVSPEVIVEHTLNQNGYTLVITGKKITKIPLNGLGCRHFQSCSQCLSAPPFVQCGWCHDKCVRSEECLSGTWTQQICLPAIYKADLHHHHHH
Description: Following incubation, the supernatant was removed and the wells washed twice with wash buffer 0.05% Tween20-PBS, this was followed by a 1 hour block at room temperature with 3% FCS/PBS at 230 μl/well. The wells were then washed one with wash buffer (0.05% Tween 2-PBS) and rinsed with PBS. 100 μl of sample (hybridoma supernatant) was then added to each well and the plate incubated at room temperature for 1 hour. This was followed by a 4× wash with wash buffer (0.05% Tween 2-PBS) and rinse with PBS. 100 μl of goat anti-mouse Ig gamma-AP (Sigma A3438), diluted in wash buffer 1:2000 was then added and allowed to incubate at room temperature for 1 hour. Following the incubation, the wells were washed 4× with wash buffer and rinsed with PBS. The reaction was developed with 100 μl of pNPP (1 mg/ml n diethanolamine-HCL buffer pH 9.6) for 10 mins at room temperature. This was followed by stop solution (3.0 M NaOH, 50 μl/well). The OD was measured at 405 nm.

peptide 48 = target: T4, peptide 48 (N-terminal biotin); assay: ELISA on biotinylated 20-mer c-Met peptides on streptavidin plates, A405 nm, mean ± SEM
T4 peptide: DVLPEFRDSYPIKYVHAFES
Description: (§1) The library consisted of N-terminally biotinylated, 20-mer peptides, overlapping by 15 amino acids and pre-absorbed onto 96-well streptavidin coated plates. LMH antibodies 80 to 89 were added to these plates to determine their reactivity against each single peptide using standard ELISA. Epitopes for each antibody were determined by overlaying the sequences of the peptides which reacted with the antibody, leading to a determination of a core common amino acid sequence.
(§2) The peptide sequence bound by each antibody was aligned to determine the core epitope.

peptide 46 = target: T5, peptide 46 (N-terminal biotin); assay: as above
T5 peptide: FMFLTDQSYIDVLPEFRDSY
Description: as §1, §2

peptide 47 = target: T6, peptide 47 (N-terminal biotin); assay: as above
T6 peptide: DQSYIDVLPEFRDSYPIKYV
Description: as §1, §2

[3] = target: T3, purified truncated c-Met fragment …; assay: BIAcore, His6-c-Met 25-567 on Ni-NTA chip, antibody passed over; apparent KD
Excerpt: The LMH antibodies were passed over the chip at varying concentrations in order to determine apparent affinity (KD). Chips were regenerated with EDTA.

peptide 23 = target: T7, peptide 23 (N-terminal biotin); assay: ELISA on biotinylated 20-mer c-Met peptides on streptavidin plates, A405 nm
T7 peptide: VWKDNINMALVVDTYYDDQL
Description: as §1, §2

peptide 25 = target: T8, peptide 25 (N-terminal biotin); assay: as above
T8 peptide: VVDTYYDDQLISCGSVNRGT
Description: as §1, §2

peptide 24 = target: T9, peptide 24 (N-terminal biotin); assay: as above
T9 peptide: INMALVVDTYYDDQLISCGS
Description: as §1, §2

- binding result (unprocessed c-Met (p170)): binds
- binding result [1]: binds
- binding result [2]: binds
B1: antibody LMH 85 (antibody, V domains shown)
VH: QVQLQQSGAELAKPGASVKMSCKASGYTFIIYWIHWIKQRPGQGLEWIGYINPSNDYTEYNQKFKDKATLTADKSSNTAFMQLSSLTSEDSAVYYCARDSYDYDDGAYAMDYWGQGTSVTVSS
VL: QIVLSQSPAILSASPGEKVTMTCRASSGVNYMHWYQQKPGSSPKPWIYATSNLASGVPARFSGSGSGTSYSLTISRVEAEDAATYYCQQWISHPFTFGSGTKLEIK
notes: Mouse monoclonal antibody from a hybridoma

- binding result (peptide 48): binds
- binding result (peptide 46): binds
- binding result (peptide 47): binds
- Kd [3]: 2.6 nM
B2: antibody LMH 87 (antibody, V domains shown)
VH: QVQLQQSGPELVKSGASVKMSCKASGNTLKDDHVHWVKQRPGQGLEWIGWIYPGGGRTRYNEKFKGKTTLTADKPSSTVNMLLSSLTSEDSAIYFCTNLVFDVWGAGTTVTVSS
VL: DIVMTQAAPSVPVTPGESVSISCRSSKSLLHSNGNTYLYWFLQRPGQSPQVLIYRMSNLASGVPDRFSGSGSGTAFTLRIRRVEAEDVGVYYCMQNLEYPFTFGGGTKLEIK
notes: as for B1

- binding result (peptide 23): binds
- binding result (peptide 25): binds
- binding result (peptide 24): binds
B3: antibody LMH 82 (antibody, V domains shown)
VH: EVQLQQSGPELVKPGASVKMSCKASGYTFTDYYMKWVKQSHGKNLEWIGDINPNNGGTNYNQKFKGKATLTVDKSSSTAYMQLNSLTSEDSAVYYCARSGYWGQGTTLTVSS
VL: DVLMTQTPLSLPVSLGDQASISCRSSQSILHSNGNTYLEWYLQKPGQSPKLLIYKVSNRFSGVPDRFSGSGSGTDFTLKISRVEAEDLGVYYCFQGSHVPWTFGGGTKLEIK
notes: Mouse monoclonal antibody from a hybridoma; also called hybridoma PTA-11406
